Laboratory results reported in the DeepSol protein solubility set.

Assay: soluble on expression in E. coli; label from the status in PepcDB or PDB records

Row | Sequence | soluble on expression in E. coli
1 | MQYHRIPHSSLEVSTLGLGTMTFGEQNSEADAHAQLDYAVAQGINLIDVAEMYPVPPRPETQGLTETYVGNWLAKHGSREKLIIASKVSGPSRNNDKGIRPDQALDRKNIREALHDSLKRLQTDYLDLYQVHWPQRPTNCFGKLGYSWTDSAPAVSLLDTLDALAEYQRAGKIRYIGVSNETAFGVMRYLHLADKHDLPRIVTIQNPYSLLNRSFEVGLAEVSQYEGVELLAYSCLGFGTLTGKYLNGAKPAGARNTLFSRFTRYSGEQTQKAVAAYVDIARRHGLDPAQMALAFVRRQPFVASTLLGATTMDQLKTNIESLHLELSEDVLAEIEAVHQVYTYPAP | soluble
2 | NVPVGMSIGVYDYELSDYAERMDAISGGAIRSSFARNGGIGFDIGASLQIGYMIKFTDSIGLSILAEAGYSHDTYSYISRLDKNNSYSYSFESLQLGVIPKFNIKNFAIGIGGGVKIPLAGNIHTKTSLFESNTKLTSDDIKRLYEKALMPYIKVTFDYSIFFTQKTAFNIGLYLGYDFGLEPNIYTVDGAIDGNRLVVDEVSYSSFDVGLQVGLKFGPSTK | not soluble
3 | MDYSVANAGFERFQSAMEKDVERMRDFQERMSQVRGKGEAAEGRITAEVDSENGLAVLDIDPRVLRMPVEDISTEIRAAVNAAFKDFQDKTGSLAAELYGAQGEDPEKILADPSALLAKIEELGNNFAVQLQDMARELSVQQQRAKDIAGRMTPPRDLD | not soluble
4 | MPADPRNAGKDKGNLQMELQNLLTSARIRKMEYEAIVEELEEDELKYDLFEYQDYLENYIMPYVERAYKNGSKELIGMAEEVKSIFEEIIDMIKARIEKK | not soluble
5 | MRTLLIRYILWRNDGDPSYYNDDFKKLILFDELVDDDDVCTLIKNMRMTLSDGPLLDRLNQPVNNVEDVKRMIAISAKVARDIGRRSEIRWEDSFTILFRMIEKYFDDLMTDLYGEK | not soluble
6 | MGSDKIHHHHHHMAEQENSKDLISVLWSGADVLRSKMDANEYKNYLLGIVFYKYLSDSFLIRVYDLINDEKPESLKVALEAYKNELKGEYANDLLDELKQDRKYVIEPELTYTCFAEDARNNCFNREQLQKAFNNIEQSGELFVDLFSDIDLYSSRLGAGDQKQSDTIAELIKVIDQADLLNSDGEILGDAYEYLIGQFASETGKKAGEFYTPQAVSKILTRIAITGQENVKGLSIYDPCMGSGSLLLNAKRYYKGDTNYIKYYGQELNMSTYNLARMNMFLHDVAAENQNLHHGDTLDADWPTGEETDFHMVLMNPPYSAKWSAASGFLQDERFSEYGVLAPKSKADYAFLLHGLYHLKSNGTMAIVLPHGVLFRGAAEGKIREKLLRSGNIYAVIGLPANLFYNTSIPTCIVVLKKHRDGRDVLFIDASKKFIKGKKQNEMSDEHIDEVMDLYNRRETVDKESYLASFDDIEKNDFNLNIPRYVDNFEKEEEVDINGLLEDMQKTDDEIGKVEGEFVNLLKDLTSSDENIMASLNRYIDMIEG | not soluble
7 | MSLGDERPDVLLTGLLFYDLVLTGLGKPPTPGEEIWTEGMGVSPGGIANLAVAASRFGLRTSLATVFGDDHYGAYCRGVLAGQEGIDLSLSRTADGWHTPVTVSLAYGHDRALVTHGQDPPYSQDALMGDPPEARTALVHIEAEPHAWLAKAAANGTRIYADVGWDPTQQWSRDLLDQLSLCHAFLPNEAEAMAYTRTDSAMAALGTLTDLVPVAVVTRGGDGAVAVDQTTGEYAEVPALDIDVLDPTGAGDVFGASFVAASLGGWPLAERLRFAVLAAGLSVQRHGGALAAPGWYGVHRWWHSLEDPGLRRAYGFLADRIPADPGPPVRHAPVTPPDATRREGHHHHHH | soluble
8 | MWITTTPWSKHSPNWVLADNGEKLIVPEIILGDAQGPTRNEWYIGLSSVLGFSFWSPDYDGVGTWLDAATQLNEQGGGDVITYSSGAHIVRTLLLAASQSNVHSTFTSKALGNDQTSSMTSSTTAVTVAKSGDGQQQTGEQKEEDWKDISKADLFKDDPYVLKNFGDSTTQAKMQSGGSTNSNGNGSQASLAFTKKALSLLKFLVDNKILKKDKVKEAIMNPDQYLSKRSKLDSNNQKPTKDDFIGSEFKDLYENAAKLNRFNSIWAEKDTDNAKFLITVVDSYFPVLPVPAAGLNETSPTLLKPWFQFRSAPSGNGTIRDYGFIPENK | soluble
9 | MSLKIAILCASGKVGKEISKEALKRNLEPVCFVRNSSKMNEFLPQAKIVQRDLFELDSKDLIDFDIIIDAFGEWENLSLHKKHIECLSVILQGSKAKLFVVGGAGSLYMDENHTTRLMDMPDFPKEYLDIAKASAEVLEFLRNEKGFKWVYVSPSAIFSPDLPKSNHYKIIGEKFEVNANNESKISYSDYASAMIDIVLNSCYENTRIGVISLEGHHHHHH | soluble
10 | MKIATYNVRVDTEYDQDWQWSFRKEAVCQLINFHDWSLCCIQEVRPNQVRDLKAYTTFTCLSAEREGDGQGEGLAILYNEQKVQAIDTGYFWLSETPQQPSIHPEAGCPRIALWGLFKETTQNTPFLVINVHLDHISAHARLAGMTVILEELHDKIAQYPTLLMGDFNAESGEEVHQLVQKKFQDSKNLATHYGPRGTFQNFTYTKPWAELEEIDYIYVKGWQVQQTASLTDSIDGRFPSDHFPLEAEVAGENLYFQ | soluble
11 | RIRKEPPVYAAGSLEEQWYLEIVDKGSVSCPTCQAVGRKTIEGLKKHMENCKQEMFTCHHCGKQLRSLAGMKYHVMANHNSLP | soluble
12 | MIHAARSLAGSRAGPLLALLLLGLATARAEPVDGLPLRADGDGRWSLAAGRYAGNFVIDRPLHLRCEAGAELDGGGHGSLLTLTSPGITVEGCRLRNWGRNLTELDAAIFVGKAASGAVIRGNDLRGAGFGVWLDATVGAQVLDNRIEGDESVRSQDRGNGIHLYAVKDALVRGNRVSHTRDGVYIDTSNDSSIEANRFEELRYGVHYMFTHNSRVTDNLTRRTRTGYALMQSRKLTVTGNRSIDDENYGILMNYITYSTLAGNRVEGVRSGSTGDAMISGAEGKALFIYNSLFNRIEGNSFADSALGIHLTAGSEDNRIAGNAFIGNRQQVKYVASREQEWSADGRGNYWSDYLGWDRDDDGLGDVAYEPNDNVDRLIWLYPQVRLLLNSPSIELLRWVQRAFPVVRSPGVRDSHPLMRMPAAEPRPLEHHHHHH | not soluble
13 | MKLDKYTVGKRYGKALFELAVEKNQAEAIYQELLTLREVYHQVPGIGDILSDDRLEPYEKDSIMEKLVTGFSEMMQNFLRVVYEYRRMYDLLLMIDEYERRYDEHQGLILGSVTTAIPLSKEQHQAMEEKAAQLLGYEQAHLVNLIDPSIVGGVVIEANHQVIDGSIRKQLEHMQQKLLK | not soluble
14 | MIFTTQVKYTYDTLSTFPEDMPSREGFTLISDHFGAGMLAPMEVVVNSKESMKSSLENVNGVASVTGPERSKGYQKYTLILKDNPYSNEAMDVVPKVRAAADKGNDVYIAGQTATQYDDRAVTEHDEKVIIPLEHHHHHH | soluble
15 | MTTNKPLISVIMPVYNGGFTIRQAVESVFCQNIPLELLVIDDGSTDQTSEVLSVYRNRPDFHYLKNPHNIGAAASRNRGVQEAHGQYVAFLDADDWWENGKLQIQLDTLHETGRVLCSTGRELMNYDGTPTGKYIPVKETVSYRDLLKHNSINCSSVLLLRDVAAEFPMEHDDSHEDYLTWLKILRKYGPAAGIDRPLLKYRMSKTSKSGDKKKSAIMTYKVYRYMGYSHMRCILYFISYAIHGFWKYR | not soluble
16 | MGSDKIHHHHHHMTSQKYQSKTLKIAVVGDIHDQWEVEDGMALKHLGVDLVLFVGDFGNESVEVVRAIASLNIPKAAVMGNHDAWYTATEWGRKKCPYDRTKEDWVQEQLDLLGSAHVGYGKLDFPEWNLTVVGGRPFSWGGHEWRFADICKDRYGVTTLEESAQRIFASVKSAACETIIFLGHNGPSGLGDRPEDPCGKDWHPIGGDFGDPDLAEAISLTMTTGKQIALVTFGHMHHSLRHTKKELRKPIFKSPEGIVYLNAASVPRIVEGESGKLRNFSLVSLEAGEVTQASLIWVGEDFQVAKEEIFYERSTSVVPSV | not soluble
17 | MGSDKIHHHHHHMSQIISVHSFRGGTGKSNMTANLATTLALQGKRIAIIDTDIQSPGIHVIFGLNEQKMNNCLNDYLWGKCAIEDAAYDVTHLLKGEGGSGKLYLIPSSINPGQITRILREGYDVARLNDGFYEIINALDLDYLLIDTHPGLNEETLLSIAISDILVVILRPDQQDFQGTAVTLEVARKLEVPKMMLVVNKVLSTFDFNALQQEVESTYKTPVAGIVPLSEDIIRLASSNIFCLLYTSHPFSQVVQKITAQIIREQAKVAVRGAF | not soluble
18 | MTRQMILAVGQQGPIARAETREQVVGRLLDMLTNAASRGVNFIVFPELALTTFFPRWHFTDEAELDSFYETEMPGPVVRPLFETAAELGIGFNLGYAELVVEGGVKRRFNTSILVDKSGKIVGKYRKIHLPGHKEYEAYRPFQHLEKRYFEPGDLGFPVYDVDAAKMGMFICNDRRWPETWRVMGLKGAEIICGGYNTPTHNPPVPQHDHLTSFHHLLSMQAGSYQNGAWSAAAGKVGMEEGCMLLGHSCIVAPTGEIVALTTTLEDEVITAALDLDRCRELREHIFNFKAHRQPQHYGLICEF | soluble
19 | MRTVSTVAELRAALPREGVGFVPTMGYLHRGHLALVERARRENPFVVVSVFVNPLQFGPGEDYHRYPRDLERDRALLQEAGVDLLFAPGVEEMYPEGFATRVQVEGPLTALWEGAVRPGHFQGVATVVARLFLLVQPQRAYFGEKDYQQLLVVRRMVRDLGFPVEVVGVPTVREEDGLALSSRNVYLSPETRKKAPVLYRALLAMREVAGQGGSVAEALRAGEEALRAVPEFRKDYLAIVHPETLLPLSDWVAGARGIVAGRFPEARLIDNLEVYP | soluble
20 | MGHHHHHHSHMPKVYGSLIDTETRCRHYFTEEDIIAIKFKCCNKYYPCYKCHNEFEKHAIKRWSEPSFNEKAILCGVCKHELTINEYMMVERCPNCQSRFNNRCKYHYHIYFEI | soluble
21 | MRLYWRMPTTTPALRPQDLTETAFAPYGWMLGKPLPAGDDVLRFSNPATDFWQEHVFDTGAGAGRETEVLWVNYRISQPGFDTLEKHLLTQQAIVPLTGAIVQIVARSAFDGSPDLASLAAFVVPPGQGICMRPGCWHATRISGGEVTCLMLTRRSTTLDLVRHLHGEPARESEIVAIVPHGLDLPARPTAEGPAPHGRLEHHHHHH | not soluble
22 | GLPRHSAVMERLRRRIELCRRHHSTCEARYEAVSPERLELERQHTFALHQRCIQAKAKRAGKH | soluble
23 | MAFPAGFGWAAATAAYQVEGGWDADGKGPCVWDTFTHQGGERVFKNQTGDVACGSYTLWEEDLKCIKQLGLTHYRFSLSWSRLLPDGTTGFINQKGIDYYNKIIDDLLKNGVTPIVTLYHFDLPQTLEDQGGWLSEAIIESFDKYAQFCFSTFGDRVKQWITINEANVLSVMSYDLGMFPPGIPHFGTGGYQAAHNLIKAHARSWHSYDSLFRKKQKGMVSLSLFAVWLEPADPNSVSDQEAAKRAITFHLDLFAKPIFIDGDYPEVVKSQIASMSQKQGYPSSRLPEFTEEEKKMIKGTADFFAVQYYTTRLIKYQENKKGELGILQDAEIEFFPDPSWKNVDWIYVVPWGVCKLLKYIKDTYNNPVIYITENGFPQSDPAPLDDTQRWEYFRQTFQELFKAIQLDKVNLQVYCAWSLLDNFEWNQGYSSRFGLFHVDFEDPARPRVPYTSAKEYAKIIRNNGLEAHL | soluble
24 | MSRIEQLISDIESYIDNCKYYPLSNVKIIVNKEQLEDMLTELRLKTPDEVKKYQKILSNKDAILADAKEQADAIINAAQIQTEELINEHEIMQRAYAQANELIEQATAQAQTILDNATEEANSIRYGAMQYTDDMLAKLQYIIEHSIKDNKEKYDSLLSGLENVLSVVNNNRNELSGIEENSTEESADTDASNETDSQSDDEE | not soluble
